The values below come from PMC10220053.

The target of the assay is Eaf3^MRG–Rco1^PHD1–SID complex (S. cerevisiae) (UniProt Q12432). The experiment in a line: ITC; H3 1–12 peptides with the Eaf3^MRG–Rco1^PHD1–SID complex or with Rco1^PHD1 alone.
Chain of Eaf3^MRG–Rco1^PHD1–SID complex (S. cerevisiae) (Q12432 218-401, chain 1 of 2): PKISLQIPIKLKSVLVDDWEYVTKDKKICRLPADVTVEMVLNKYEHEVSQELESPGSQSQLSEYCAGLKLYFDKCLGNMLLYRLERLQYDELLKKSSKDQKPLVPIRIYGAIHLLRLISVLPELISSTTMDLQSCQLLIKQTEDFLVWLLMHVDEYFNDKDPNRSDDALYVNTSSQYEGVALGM
Chain of Eaf3^MRG–Rco1^PHD1–SID complex (S. cerevisiae) (Q04779 240-376, chain 2 of 2, further chain): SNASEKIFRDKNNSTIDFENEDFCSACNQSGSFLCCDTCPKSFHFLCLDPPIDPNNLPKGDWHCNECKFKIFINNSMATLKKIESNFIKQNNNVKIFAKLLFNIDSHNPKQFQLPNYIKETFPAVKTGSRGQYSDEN

In turn, “H3K4me0^1–12 peptide (from UniProt P61830 2-13)” gave a dissociation constant Kd of 22 µM.
Take “H3K4me1^1–12 peptide (from UniProt P61830 2-13)”: the equilibrium dissociation constant (Kd) was found to be 65 µM.
Consider “H3K4me2^1–12 peptide (from UniProt P61830 2-13)”, for which the Kd is 360 µM.
